PMC11962071 (Nature Communications, 2025)

What was measured:
[1] = molecular target: Mus musculus calmodulin (mCaM), recombinant (Mus musculus, UniProt P0DP27 1-149); test: crystal structure
[2] = molecular target: Drosophila melanogaster calmodulin (dCaM), recombinant (Drosophila melanogaster, UniProt P62152 1-149); test: ITC

Row | binding result [1] | fold decrease in affinity against the wild type [2] [fold] | Binder
1 | binds |  | AAALIQRWYRRYMARLEM [mPPEF2 IQ (aa 22-39)]
2 |  | 236 | MDENAIRAAIFEQKWYRRHQARREM (domain or fragment) [RDGC IQ (aa 1-25) I12E]
